The values below come from patent US11278600B2, “Human alpha-galactosidase variants” (Codexis, Inc., priority 2014, dated 2022).

Common to all, as to assay type: biochemical
Data set [1] in a line: HTP-analysis of yeast culture supernatants, no challenge (MUGal hydrolysis). The following applies: activity of the variant/activity of Rd7BB (SEQ ID NO: 44). Summed up:
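GLA variants expressed in yeast INVSc1, secreted into SD-Ura broth over 66-84 h at 30° C; clarified supernatants tested without challenge. Supernatant mixed with McIlvaine buffer pH 4.8 and 2 mM MUGal (citrate/KCl, pH 4.6), 37° C for 30-180 min, carbonate-quenched, fluorescence Ex 355/Em 448 nm.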

Data set [2] in a line: HTP-analysis of supernatants pretreated with acid (MUGal hydrolysis). Particulars: activity of the variant/activity of Rd7BB (SEQ ID NO: 44); challenge at pH 3.5. The method in brief: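 MUGal hydrolysis was tracked by fluorescence (Ex 355 nm, Em 448 nm) after a 30-180 min reaction at 37° C. in pH 4.8 McIlvaine/citrate buffer, stopped with 1 M sodium carbonate. Beforehand, yeast (INVSc1) culture supernatants carrying GLA variants were held 1-3 h at 37° C. in acidic McIlvaine buffer, pH 3.3-4.3.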

Data set [3] is described as follows: HTP-analysis of supernatants pretreated with base (MUGal hydrolysis). The following applies: activity of the variant/activity of Rd7BB (SEQ ID NO: 44); challenge at pH 7.5. Summed up: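 Fluorescence of released 4-MU (Ex 355 nm, Em 448 nm) after carbonate quench reports MUGal hydrolysis by GLA variants secreted from INVSc1 yeast. Before the acidic (pH 4.3-4.8) 30-180 min reaction at 37° C, supernatants had been pre-incubated at pH 7.0-9.7 for 1-18 h at 37° C.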

B1: 670 (protein)
chain: LDNGLARTPTMGWLHWERFMCNLDCQEEPDSCISEKLFMEMAERMVTEGWKDAGYEYLCIDDCWMAPQRDSEGRLQADPQRFPHGIRQLANHVHSKGLKLGIYADVGNKTCAGFPGSFGYYDIDAQTFADWGVDLLKFDGCYCDSLENLADGYKHMSLALNRTGRPIVYSCEWPLYMWPFQKPNYTEIRQYCNHWRNFADIDDSWASIKSILDWTSRNQERIVDVAGPGGWNDPDMLVIGNFGLSWDQQVTQMALWAIMAAPLFMSNDLRAISPQAKALLQDKDVIAINQDPLGKQGYQLRKGDLFEVWERPLSGDAWAVAIINRQEIGGPRSYTIPVASLGKGVACNPACFITQLLPVKRQLGFYNWTSRLKSHINPTGTVLLQLENTMQTSLKDLL
modifications: Synthetic Polypeptide sequence of Variant No. 670 of mature Human GLA
Take B1: the “Relative Activity of GLA Variants After No Challenge (NC)” value in data set [1] is reported as “+ (>0.5 to 1.5 relative activity over Rd7BB (SEQ ID NO: 44))”. For the same molecule, the “Relative Activity of GLA Variants After Challenge at pH 3.5” value (shortened to “Relative Activity … at pH 3.5”) in data set [2] is on record as “+ (>0.5 to 1.5 relative activity over Rd7BB (SEQ ID NO: 44))”. Also, the “Relative Activity of GLA Variants After Challenge at pH 7.5” value (from here on “Relative Activity … at pH 7.5”) in data set [3] is “+ (>0.5 to 1.5 relative activity over Rd7BB (SEQ ID NO: 44))”.

B2: 674 (protein)
chain: LDNGLARTPTMGWLHWERFMCNLDCQEEPDSCISEKLFMEMAERMVTEGWKDAGYEYLCIDDCWMAPQRDSEGRLQADPQRFPHGIRQLANHVHSKGLKLGIYADVGNKTCAGFPGSFGYYDIDAQTFADWGVDLLKFDGCYCDSLENLADGYKHMSLALNRTGRPIVYSCEWPLYMWPFQKPNYTEIRQYCNHWRNFADIDDSWASIKSILDWTSRNQERIVDVAGPGGWNDHDMLVIGNFGLSWDQQVTQMALWAIMAAPLFMSNDLRAISPQAKALLQDKDVIAINQDPLGKQGYQLRKGDNFEVWERPLSGDAWAVAIINRQEIGGPRSYTIPVASLGKGVACNPACFITQLLPVKRQLGFYNWTSRLKSHINPTGTVLLQLENTMQTSLKDLL
modifications: Synthetic Polypeptide sequence of Variant No. 674 of mature Human GLA
As for B2, the “Relative Activity of GLA Variants After No Challenge (NC)” value in data set [1] is “− (<0.5 relative activity to Rd7BB (SEQ ID NO: 44))”. Further, the “Relative Activity … at pH 3.5” value in data set [2] is on record as “− (<0.5 relative activity to Rd7BB (SEQ ID NO: 44))”. The “Relative Activity … at pH 7.5” value in data set [3] was “− (<0.5 relative activity to Rd7BB (SEQ ID NO: 44))”.

B3: 672 (protein)
chain: LDNGLARTPTMGWLHWERFMCNLDCQEEPDSCISEKLFMEMAERMVTEGWKDAGYEYLCIDDCWMAPQRDSEGRLQADPQRFPHGIRQLANHVHSKGLKLGIYADVGNKTCAGFPGSFGYYDIDAQTFADWGVDLLKFDGCYCYSLENLADGYKHMSLALNRTGRPIVYSCEWPLYMWPFQKPNYTEIRQYCNHWRNFADIDDSWASIKSILDWTSRNQERIVDVAGPGGWNDPDMLVIGNFGLSWDQQVTQMALWAIMAAPLFMSNDLRAISPQAKALLQDKDVIAINQDPLGKQGYQLRKGDNFEVWERPLSGDAWAVAIINRQEIGGPRSYTIPVASLGKGVACNPACFITQLLPVKRQLGFYNWTSRLKSHINPTGTVLLQLENTMQTSLKDLL
modifications: Synthetic Polypeptide sequence of Variant No. 672 of mature Human GLA
As to B3, the “Relative Activity of GLA Variants After No Challenge (NC)” value in data set [1] is on record as “+ (>0.5 to 1.5 relative activity over Rd7BB (SEQ ID NO: 44))”. In data set [2], the “Relative Activity … at pH 3.5” value was “+ (>0.5 to 1.5 relative activity over Rd7BB (SEQ ID NO: 44))”. In data set [3], the “Relative Activity … at pH 7.5” value is “− (<0.5 relative activity to Rd7BB (SEQ ID NO: 44))”.

B4: 673 (protein)
chain: LDNGLARTPTMGWLHWERFMCNLDCQEEPDSCISEKLFMEMAERMVTEGWKDAGYEYLCIDDCWMAPQRDSEGRLQADPQRFPHGIRQLANHVHSKGLKLGIYADVGNKTCAGFPGSFGYYDIDAQTFADWGVDLLKFDGCYCDSLENLADGYKHMSLALNRTGRPIVYSCEWPLYMWPFQKPNYTEIRQYCNHWRNFADIDDSWASIKSILDWTSRNQERIVDVAGPGGWNDPDMLVIGNFGLSWDQQVTQMALWAIMAAPLFMSNDLRAISPQAKALLQDKDVIAINQDPLGKQGYQLRKGDNFEVWERPLSGDAWAVAIINRQEIGGPRSYTIPVASLGKGVACNPACFITQLLPVKRQLGFYNWTSRLKSHIYPTGTVLLQLENTMQTSLKDLL
modifications: Synthetic Polypeptide sequence of Variant No. 673 of mature Human GLA
As to B4, the “Relative Activity of GLA Variants After No Challenge (NC)” value in data set [1] is listed as “+ (>0.5 to 1.5 relative activity over Rd7BB (SEQ ID NO: 44))”. Besides, the “Relative Activity … at pH 3.5” value in data set [2] was “+ (>0.5 to 1.5 relative activity over Rd7BB (SEQ ID NO: 44))”. The “Relative Activity … at pH 7.5” value in data set [3] is given as “− (<0.5 relative activity to Rd7BB (SEQ ID NO: 44))”.

B5: 675 (protein)
chain: LDNGLARTPTMGWLHWERFMCNLDCQEEPDSCISEKLFMEMAERMVTEGWKDAGYEYLCIDDCWVAPQRDSEGRLQADPQRFPHGIRQLANHVHSKGLKLGIYADVGNKTCAGFPGSFGYYDIDAQTFADWGVDLLKFDGCYCDSLENLADGYKHMSLALNRTGRPIVYSCEWPLYMWPFQKPNYTEIRQYCNHWRNFADIDDSWASIKSILDWTSRNQERIVDVAGPGGWNDPDMLVIGNFGLSWDQQVTQMALWAIMAAPLFMSNDLRAISPQAKALLQDKDVIAINQDPLGKQGYQLRKGDNFEVWERPLSGDAWAVAIINRQEIGGPRSYTIPVASLGKGVACNPACFITQLLPVKRQLGFYNWTSRLKSHINPTGTVLLQLENTMQTSLKDLL
modifications: Synthetic Polypeptide sequence of Variant No. 675 of mature Human GLA
As to B5, the “Relative Activity of GLA Variants After No Challenge (NC)” value in data set [1] was “+ (>0.5 to 1.5 relative activity over Rd7BB (SEQ ID NO: 44))”. Besides, in data set [2], the “Relative Activity … at pH 3.5” value is reported as “+ (>0.5 to 1.5 relative activity over Rd7BB (SEQ ID NO: 44))”. Also, the “Relative Activity … at pH 7.5” value in data set [3] is “− (<0.5 relative activity to Rd7BB (SEQ ID NO: 44))”.

B6: 671 (protein)
chain: LDNGLARTPPMGWLHWERFMCNLDCQEEPDSCISEKLFMEMAERMVTEGWKDAGYEYLCIDDCWMAPQRDSEGRLQADPQRFPHGIRQLANHVHSKGLKLGIYADVGNKTCAGFPGSFGYYDIDAQTFADWGVDLLKFDGCYCDSLENLADGYKHMSLALNRTGRPIVYSCEWPLYMWPFQKPNYTEIRQYCNHWRNFADIDDSWASIKSILDWTSRNQERIVDVAGPGGWNDPDMLVIGNFGLSWDQQVTQMALWAIMAAPLFMSNDLRAISPQAKALLQDKDVIAINQDPLGKQGYQLRKGDNFEVWERPLSGDAWAVAIINRQEIGGPRSYTIPVASLGKGVACNPACFITQLLPVKRQLGFYNATSRLKSHINPTGTVLLQLENTMQTSLKDLL
modifications: Synthetic Polypeptide sequence of Variant No. 671 of mature Human GLA
Turning to B6, the “Relative Activity of GLA Variants After No Challenge (NC)” value in data set [1] is listed as “++ (>1.5 relative activity over Rd7BB (SEQ ID NO: 44))”. In addition, the “Relative Activity … at pH 3.5” value in data set [2] was “++ (>1.5 relative activity over Rd7BB (SEQ ID NO: 44))”. The “Relative Activity … at pH 7.5” value in data set [3] is reported as “+ (>0.5 to 1.5 relative activity over Rd7BB (SEQ ID NO: 44))”.
